Data reported in patent publication US20080260750A1 (MCGILL UNIVERSITY, published 2008).

T1: ACC-3D10.5 acetylcholine-gated chloride channel subunit (C. elegans, UniProt G5EDN0 20-517)
T1 sequence: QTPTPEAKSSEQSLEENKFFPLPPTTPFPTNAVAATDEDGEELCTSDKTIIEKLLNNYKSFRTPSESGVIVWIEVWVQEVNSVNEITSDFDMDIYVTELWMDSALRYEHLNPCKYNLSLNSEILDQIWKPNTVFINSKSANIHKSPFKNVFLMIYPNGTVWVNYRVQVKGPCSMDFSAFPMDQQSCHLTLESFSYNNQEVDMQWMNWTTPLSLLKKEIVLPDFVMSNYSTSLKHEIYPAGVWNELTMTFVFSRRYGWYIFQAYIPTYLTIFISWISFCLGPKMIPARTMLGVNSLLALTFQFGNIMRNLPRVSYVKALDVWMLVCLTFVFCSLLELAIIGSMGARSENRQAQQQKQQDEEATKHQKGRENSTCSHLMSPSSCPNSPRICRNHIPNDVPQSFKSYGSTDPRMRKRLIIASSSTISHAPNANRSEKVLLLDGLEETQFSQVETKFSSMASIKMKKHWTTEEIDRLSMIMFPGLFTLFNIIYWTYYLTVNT

B1: ACC-1G6.4 acetylcholine-gated chloride channel subunit (receptor)
chain: QSLDNCANDTEIINALLKDSYNKHYIPSHPTHVRVDMWVQEVTSVSELTQDFEIDLYINEFWEDPALVYEDMNPCKRNISFDDKVLQRLWLPNTCFINSKSAAIHESPFKNVFLMVFSNGTLWTNYRMKLTGPCDMKLKRFPFDKQKCYLTFESFNYNTGEVRMQWNQPYPVILLKRIELPDFKLVNFSVIAVEQMYPAGWWDELTVAFVFERRYGWYVLQGYIPTMVTIVISWISFYLGPRAIPARTMLGVNSLLAMTFQFGNIIRNLPRVSYVKAIDVWMLSGMLFIFLSLLELAVVGFMSRNEGLPPKVKKRKRQEDDDEGFSWKSMQTSPHLELRQFWVDKRVNSLRNDSAVPPVEDYAPMELEQPYQNITKRREKRKWMSGLRKKWRAMRELRPETVDFYSAIFFPTAYMLFNISYWSFYLTSLSEYFDEDVNIDQP
notes: Expressed from cRNA in Xenopus oocytes; also called ACC-1G6.4 receptor; ACC-1G6.4 channel
B2: ACC-2D6.3 acetylcholine-gated chloride channel subunit (receptor)
chain: DYSELVHSAELVSSSSYIHHKTNKKPDNCTRDTDIIDRLLNGTGYNKFRIPQEEGMTVVVEIWIQAITSIDELTNDFDMDIYITETWLDPALNFQTMTPCKGNLSLNHQVLDRLWTPNSCFINSKVAQIHNSPFRSVFLMLFPNGTVMVNYRVRVKGPCSLDLSNFPLDLQKCSLIYESFNYNRQEVEMRWSDAEHPVFNLSKIMLPDFDLFEIQTERRQEPYPAGMWDELHVTIIFERRFIWYFMQAYLPTYLTIFISWISFSLGSRAIPARTMLGVNSLLAIVFSFGNIMRNLPRVSYIKGIDVWMLVSMTFIFCSLLELAIVGFMVRDETVAKKKQQKKISGNISREESPHGIISERRFMFPPGCSESSKSLSSCTSGWTPERIDSISSVMFPFSFFVFNIIYWFYYIHRKEIIKQNLINRVDG
notes: Expressed from cRNA in Xenopus oocytes; also called ACC-2D6.3 receptor; ACC-2D6.3 channel
B3: ACC-4E9.9 acetylcholine-gated chloride channel subunit (receptor)
chain: LLRSLEDDSNECMFNCPKRARNVSVPHTEKTCMGDDAIIAQILDGYNKLDLPGGGHVVVSIEIWVQEVSKIIEITSEFELDIYVTERWTDPSLAYSHLNPCKSNMSVDGATILNKIWNPHACFVNSKLANIHESPFKNIFLQIYSNGSIWHNYRIKLTGPCSSTLRTFPIDQQRCMLFYESFTHNTDQVKMEWITTVPPITILKGNITLPDYVLVDFSSSSELRLYPPGIFNELIATFTFQRLYGFYILQVYVPAYISVFISWVSFTLGAEQIPSRTTVGVNSLLALTFQFGAVVNNLPKTSDVKAIDVWILSSMAFIFASLIELAVVGYLSRDGQHGSIKCRCSWLCMNCKDWTALKIDQMSSIVFPVSFLAFNIWYWFIFLGKLLVRTI

How the values were obtained:
[1] = molecular target: T1, ACC-3D10.5 acetylcholine-gated chloride …; test: co-expression in Xenopus oocytes, two-electrode voltage clamp (inferred from changed desensitization, EC50 and Hill coefficient for ACh)
Protocol: (§1) Oocytes were injected with 40 nl of cRNA using the Nanoject system (Drummond Scientific, Broomall, Pa., USA). Injected oocytes were incubated at 20° C. in ND96 supplemented with 100 mg/ml gentamycin and 550 mg/ml pyruvate. Oocytes were allowed to express cRNA for two days before measurements were taken.

[2] = molecular target: T1, ACC-3D10.5 acetylcholine-gated chloride …; test: co-expression in Xenopus oocytes, two-electrode voltage clamp (inferred from loss of the ACh response)
Protocol: as §1

[3] = molecular target: B2; test: as above
Protocol: as §1

Binder: B1
binding result [1]: binds

Binder: B2
binding result [2]: binds

Binder: B3
binding result [3]: binds
